Laboratory results reported in patent publication US20210023177A1.

Columns and labels:
[1] = target: human Claudin 18 splice variant 2 (CLDN18.2) (human); experiment: cell-based or functional assay
[2] = target: human Claudin 18 splice variant 2 (CLDN18.2) (human)

B1: IMAB362 (antibody, INN chains, looked up, V domains shown)
VH: QVQLQQPGAELVRPGASVKLSCKASGYTFTSYWINWVKQRPGQGLEWIGNIYPSDSYTNYNQKFKDKATLTVDKSSSTAYMQLSSPTSEDSAVYYCTRSWRGNSFDYWGQGTTLTVSS
VL: DIVMTQSPSSLTVTAGEKVTMSCKSSQSLLNSGNQKNYLTWYQQKPGQPPKLLIYWASTRESGVPDRFTGSGSGTDFTLTISSVQAEDLAVYYCQNDYSYPFTFGSGTKLEIKR
**Q.** What does the source list for B1?
**A.** ADCC EC50 (ng/ml), BxPC3 LVT cells [1]: 47.7 ng/mL; ADCC EC50 (ng/ml), CAPAN1-LVT cells [1]: 65 ng/mL; ADCC EC50 (ng/ml), DANG cells [1]: 4980 ng/mL; ADCC EC50 (ng/ml), DANG-LVT cells [1]: 52.3 ng/mL; ADCC EC50 (ng/ml), HPAC-LVT cells [1]: 117 ng/mL; ADCC EC50 (ng/ml), MiaPaCa2-LVT cells [1]: 23.4 ng/mL; ADCC EC50 (ng/ml), Panc05.04 cells [1]: 5730 ng/mL; ADCC EC50 (ng/ml), Patu8902-LVT cells [1]: 49.2 ng/mL; ADCC EC50 (ng/ml), Suit2-LVT cells [1]: 73.2 ng/mL; ADCC EC50 (ng/ml), YAPC-LVT cells [1]: 29.5 ng/mL; ADCC Max. lysis (%), BxPC3 LVT cells, human PBMC E:T 40:1 [1]: 90.6%; ADCC Max. lysis (%), CAPAN1-LVT cells [1]: 92.6%; ADCC Max. lysis (%), DANG cells [1]: 52.5%; ADCC Max. lysis (%), DANG-LVT cells [1]: 85.9%; ADCC Max. lysis (%), HPAC-LVT cells [1]: 76.2%; ADCC Max. lysis (%), MiaPaCa2-LVT cells [1]: 78.1%; ADCC Max. lysis (%), Panc05.04 cells [1]: 67.1%; ADCC Max. lysis (%), Patu8902-LVT cells [1]: 74.1%; ADCC Max. lysis (%), Suit2-LVT cells [1]: 81.2%; ADCC Max. lysis (%), YAPC-LVT cells [1]: 91.5%; CDC EC50 (ng/ml), CAPAN1-LVT cells [1]: 970 ng/mL; CDC EC50 (ng/ml), MiaPaCa2-LVT cells [1]: 340 ng/mL; CDC EC50 (ng/ml), Patu8902-LVT cells [1]: 291 ng/mL; CDC EC50, gemcitabine pretreated MiaPaCa-2-LVT cells [1]: 4.68 mg/L; CDC EC50, medium cultivated MiaPaCa-2-LVT cells [1]: 7.67 mg/L; CDC Max. lysis (%), CAPAN1-LVT cells [1]: 79.1%; CDC Max. lysis (%), MiaPaCa2-LVT cells [1]: 78.4%; CDC Max. lysis (%), Patu8902-LVT cells [1]: 76.7%; CLDN18 surface expression (FACS), % of cells stained [2]: 81.7%
